Measured values as given in patent US9228015B2, “Nogo receptor antagonists and methods of increasing neurite outgrowth” (Biogen Idec MA Inc., priority 2006, dated 2016).

T1: MAG + sNogoR344-Fc (Rattus norvegicus, UniProt Q99M75, A303T/C287S/C43R/E284G/T53A)
T1 construct: amino acid residues 26-344 of rat Nogo receptor-1; made in house; CHO (DG44) is described only for sNogoR310-Fc
T1 sequence (Q99M75 26-344 C43R/T53A/E284G/C287S/A303T): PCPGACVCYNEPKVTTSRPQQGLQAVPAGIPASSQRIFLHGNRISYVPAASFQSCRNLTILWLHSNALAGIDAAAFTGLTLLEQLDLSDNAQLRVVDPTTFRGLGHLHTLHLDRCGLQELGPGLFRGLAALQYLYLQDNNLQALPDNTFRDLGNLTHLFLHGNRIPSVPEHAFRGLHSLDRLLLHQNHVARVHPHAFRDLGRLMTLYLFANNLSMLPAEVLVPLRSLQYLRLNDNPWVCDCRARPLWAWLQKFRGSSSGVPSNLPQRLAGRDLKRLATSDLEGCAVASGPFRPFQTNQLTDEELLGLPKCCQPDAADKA

T2: OM-gp + sNogoR344-Fc (Rattus norvegicus, UniProt Q99M75, A303T/C287S/C43R/E284G/T53A)
T2 construct: amino acid residues 26-344 of rat Nogo receptor-1; made in house; CHO (DG44) is described only for sNogoR310-Fc
T2 sequence (Q99M75 26-344 C43R/T53A/E284G/C287S/A303T): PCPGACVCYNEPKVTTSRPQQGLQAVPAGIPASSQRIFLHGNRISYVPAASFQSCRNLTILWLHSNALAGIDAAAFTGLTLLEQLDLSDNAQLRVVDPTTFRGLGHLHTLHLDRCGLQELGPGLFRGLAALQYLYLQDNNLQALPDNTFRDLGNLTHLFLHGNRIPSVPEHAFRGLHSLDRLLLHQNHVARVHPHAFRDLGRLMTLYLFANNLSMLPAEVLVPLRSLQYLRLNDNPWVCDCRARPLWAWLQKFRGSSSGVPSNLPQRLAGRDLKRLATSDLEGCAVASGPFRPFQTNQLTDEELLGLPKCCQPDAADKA

T3: Nogo66 + sNogoR344-Fc (Rattus norvegicus, UniProt Q99M75, A303T/C287S/C43R/E284G/T53A)
T3 construct: amino acid residues 26-344 of rat Nogo receptor-1; made in house
T3 sequence (Q99M75 26-344 C43R/T53A/E284G/C287S/A303T): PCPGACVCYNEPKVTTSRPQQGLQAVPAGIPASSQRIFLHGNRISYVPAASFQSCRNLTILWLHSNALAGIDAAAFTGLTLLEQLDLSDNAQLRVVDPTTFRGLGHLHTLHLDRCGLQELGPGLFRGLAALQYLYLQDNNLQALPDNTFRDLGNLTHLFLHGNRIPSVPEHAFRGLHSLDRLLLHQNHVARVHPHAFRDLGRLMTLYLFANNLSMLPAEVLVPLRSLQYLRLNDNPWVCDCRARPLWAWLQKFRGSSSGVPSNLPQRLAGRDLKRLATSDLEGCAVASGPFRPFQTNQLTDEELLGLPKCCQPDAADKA


How the values were obtained:
[1] = system: chick dorsal root ganglion neurons, myelin-induced neurite outgrowth inhibition; experiment: Neurite outgrowth of embryonic day 13 chick DRG neurons on myelin (Example 29); format: cell-based; details: 8 μM NgR(310)ecto-Fc; MP 10 μg/nl as printed
Procedure: In investigating combined treatment with methyprednisolone (MP) and NgR(310)ecto-Fc for spinal cord injury (SCI), we sought to verify that these reagents have independent mechanisms of action. Briefly, myelin was dried overnight in poly-L-lysine-precoated plates (Becton Dickinson, Bedford, Mass., USA) at 80 or 400 ng/well (2.5 and 12.7 ng/mm^2, respectively). Wells were then coated with 10 µg/ml laminin (Calbiochem, La Jolla, Calif., USA) for 1 hour at foom temperature (22-24 C). Embryonic day 13 chick dorsal root ganglion neurons were dissociated and plated for 6-8 hours as previously described (GrandPre et al., 2000; Fournier et al., 2001). Neurons were treated with 8 μM NgR(310)ecto-Fc in the presence or absence of 10 μg/nl MP (Pharmacia, Kalamazoo, Mich., USA) for the entire outgrowth period. Neurons were then fixed and stained with βIII tubulin antibody (Covance, Princeton, N.J., USA) and neurite outgrowth was quantified using an automated cellular imaging and analysis system (Axon Instrument, Union City, Calif.; USA). Neurite outgrowth per cell was normalized to the average of duplicate control wells for each experiment (n=3). […] These in vitro data support the hypothesis that MP and NgR(310)ecto-Fc will enhance SCI recovery in a sequentially effective manner.

[2] = biological target: T4, panel of Nogo receptor-1 polypeptides (sNogoR310-Fc, sNogoR344-Fc, p-617, p-618, p-4, p-5) (Rattus norvegicus, UniProt Q99M75); experiment: Antibody specificity ELISA with a panel of Nogo receptor-1 polypeptides; format: binding
T4 construct: made in house
Excerpt: To determine the specificity of the monoclonal and Fab-phage antibodies produced in Examples 1 and 2, we performed an ELISA using a panel of Nogo receptor-1 polypeptides. The panel consisted of sNogoR310-Fc (a fusion protein comprising amino acids 26-310 of rat Nogo receptor-1 and a rat Fc fragment), sNogoR344-Fc (see supra), polypeptide p-617 (SEQ ID NO: 1), polypeptide p-618 (a 19-amino acid polypeptide from the LRR7 region of rat Nogo receptor-1; FIG. 2; SEQ ID NO: 11) and polypeptides p-4 and p-5 (polypeptides from the LRR5 and LRRCT regions of Nogo receptor-1, respectively). Ovalbumin and BSA were used as controls.

[3] = system: DRG neurons, myelin-mediated inhibition of neurite outgrowth; experiment: Neurite outgrowth assay, P3-4 rat DRG neurons, myelin mixed with test protein (Example 10); format: cell-based; details: mixed with CNS myelin, FIGS. 9-11
Procedure: Lab-Tek® culture slides (4 wells) were coated with 0.1 mg/ml poly-D-lysine (Sigma®). CNS myelin alone or mixed with sNogoR310, sNogoR310-Fc fusion protein, mAb 5B10 or control PBS were separately spotted as 3 μl drops. Fluorescent microspheres (Polysciences) were added to the myelin/PBS to allow later identification of the drops (Grandpre et al., Nature 403:439-444 (2000)). Lab-Tek® slides were then rinsed and coated with 10 μg/ml laminin (Gibco™).
Dorsal root ganglions (DRG's) from P3-4 Sprague Dawley rat pups were dissociated with 1 mg/ml collagenase type 1 (Worthington), triturated with fire-polished Pasteur pipettes pre-plated to enrich in neuronal cells and finally plated at 23,000 cells/well on the pre-coated Labtek culture slides. The culture medium was F12 containing 5% heat inactivated donor horse serum, 5% heat inactivated fetal bovine serum and 50 ng/ml mNGF and incubated at 37° C. and 5% CO2 for 6 hours.
Slides were fixed for 20 minutes with 4% paraformaldehyde containing 20% sucrose and stained for the neuronal marker anti beta-III-tubulin (Covance TUJ1) diluted 1:500. As secondary antibody anti-mouse Alexa Fluor® 594 (Molecular Probes) was diluted 1:300 and slides were coverslipped with Gel/Mount™ (Biømeda™). 5× digital images were acquired with OpenLab™ software and analyzed by using the MetaMorph® software for quantification of neurite outgrowth.

MAG + sNogoR344-Fc = biological target: T1, MAG + sNogoR344-Fc; experiment: ELISA: inhibition of MAG binding to sNogoR344-Fc
Procedure: (§1) 0.5 μg of a soluble Nogo receptor-1 fusion protein comprising amino acid residues 26-344 of rat Nogo receptor-1 and the hinge and Fc region of the rat IgG1 molecule (sNogoR344-Fc) produced as described below was immobilized on […] of protein-A- or wheatgerm agglutinin-conjugated SPA beads (Amersham Pharmacia Biotech) for 2 hours at 25° C. SPA beads coupled with Fc-sNogoR-1, anti-Nogo receptor-1 mAb and 1 μl ^125I-Nogo66 (Amersham, 2000 Ci/mmol, 1 nM) in […] of the HEPES-buffered incubation medium (10 mM HEPES, pH 7.4, 0.1% bovine serum albumin, 0.1% ovalbumin, 2 mM MgCl2, 2 mM CaCl2 and protease inhibitors) was added to each sample well. After 16 hours, radioactivity was measured in quadruplicate samples using a TopCount® (Packard). IC50 values were calculated from a curve-fit analysis (FIG. 3) (PRISM, GraphPad Software, NJ). In some experiments, we also used AP-ligand conjugates (e.g. AP-Nogo66) and detected binding by monitoring alkaline phosphatase activity. We also assayed the ability of the mAbs to block binding of the ligands MAG-Fc and AP-OM-gp to Nogo receptor-1.
(§2) Monoclonal antibodies 7E11, 5B10, 1H2, 3G5 and 2F7 all inhibited binding of Nogo66, MAG and OM-gp to sNogoR344-Fc. The calculated IC50 for Nogo66 for 7E11 and 1H2 were 400 nM and 60 nM, respectively. The data from ELISAs monitoring mAb-mediated inhibition of binding of the three ligands to Nogo receptor-1 are summarized in Table 6.
(§3) The percent displacement is shown at 30 nM antibody and the EC50 for certain mAbs determined from curve-fit analysis as described. “-” indicates no detectable activity and “ND” indicates not determined.
(§4) We also performed ELISA binding assays using the Fab-phage 141)5.

OM-gp + sNogoR344-Fc = biological target: T2, OM-gp + sNogoR344-Fc; experiment: ELISA: inhibition of OM-gp binding to sNogoR344-Fc
Procedure: as §1, §2, §3, §4

Nogo66 + sNogoR344-Fc = biological target: T3, Nogo66 + sNogoR344-Fc; experiment: ELISA: inhibition of Nogo66 binding to sNogoR344-Fc
Procedure: as §1, §2, §3, §4

Row | Molecule | effect on neurite outgrowth on a myelin substrate [1] | binding to polypeptide p-617 (SEQ ID NO: 1) [2] | protection of DRG neurons from myelin-mediated inhibition of neurite outgrowth [3] | inhibition of binding of MAG to sNogoR344-Fc (MAG + sNogoR344-Fc) | inhibition of binding of OM-gp to sNogoR344-Fc (OM-gp + sNogoR344-Fc) | inhibition of binding of Nogo66 to sNogoR344-Fc (Nogo66 + sNogoR344-Fc)
1 | C[C@H]1C[C@@H]2[C@H]([C@@H](O)C[C@@]3(C)[C@H]2CC[C@]3(O)C(=O)CO)[C@@]2(C)C=CC(=O)C=C12 [MP, methylprednisolone, reference compound] | no effect | – | – | – | – | –
2 | 5B10: murine monoclonal anti-Nogo receptor-1 antibody, immunogen rat Nogo receptor-1 residues 110-125, ATCC PTA-4588 (antibody, V domains shown, not fully specified; 5B10 heavy chain; 5B10 light chain) VH: LQXSGAEIVMPGTAVTMSCKASGYTFTDFWMHWVKQRPGQGLEWIGAIDPSDSYSRINQKFKGKATLTVDESSSTAYMQLSSLTSEDSAVYYCARRITEAGAWFAYWGQGTTVT VL: MKLPVRLLVLMFWIPASSSDVVMTQTPLSLPVSLGDQASISCRSSQSLVHSNGYTYLHWYLQRPGQSPKLLIYKVSNRFSGVPDRFSGSGSGTDFTLKISRVDAEDLGVYFCSQSTHVPYTFGGGTKLEIKRADAAPTVSISHH | – | specifically bound | protected | inhibited | inhibited | inhibited
